{"source": "paper PMC4576865", "about": "(The Journal of Cell Biology, 2015)", "biological_target": "the molecule itself", "experiment": "native gel or EMSA", "data": [{"protein": "Ugo1 precursor, 35S-labeled (natural protein, S. cerevisiae, UniProt Q03327 1-502, looked up, [35S]methionine) MNNNNVTEATSRAQIRPYYDPDSFNAGYSAVFKPDEGVVDPHGYTIASKLNVINSSPTTKRMANALFKSSPMKKLSNSVNDGLSLEGSNGEITGLNNFEWAELVNIQKWRKIFEQLLDMFFRKYFQLLIQQPFDVARLLIQVGEFKIFKTTVDTNKPQAPIILRDEEGDGAAREGEEDAYDEEEIDFFPIERKIAEANSTAPIMAEETDHSHHEPTDISLTIAPQSLHTIDVINALFDQEGIRGLWKANNTTFIYNFLSLSIDTWFTGLLSSFLGVPDPYFMEVINSPDISKSFILALGAGVFTSIILLPVDLIRTRLIVTSFKKKKNVKTDGKNMVTNTRSLRQLIRCWSWRKNGVSIPLDMWSLTILQSINNSFFNKLFDLVIYNQFHIEKYSQTVMYNTMKFFSKSLELFIKLPLENLLRRCQLNYLLNDQRLSFKVDSTELIVKPKKYNGIWDVIRNNSNTNRGQLWNGWKVGVISLICGYGLQMMNKVDINMEQEKF", "values": [{"measurement": "stoichiometry N", "result": 2}]}]}
